Assay results from US20080219970.

Test system: Ir-CPI (Ixodes ricinus Contact Phase Inhibitor), recombinant, without its peptide signal

| Substance | activation of factor XII into factor XIIa by kallikrein, reconstituted system with purified factors, chromogenic substrate | amidolytic activity (chromogenic substrate S-2302), protease preincubated with Ir-CPI at 1:5 molar ratio | activation of factor XII into factor XIIa by factor XIa, reconstituted system with purified factors, chromogenic substrate | amidolytic activity (chromogenic substrate S-2366), protease preincubated with Ir-CPI at 1:5 molar ratio |
| --- | --- | --- | --- | --- |
| kallikrein | Ir-CPI did not inhibit the activation of factor XII into factor XIIa by kallikrein | The results obtained did not show any effect of Ir-CPI protein on the amidolytic activity of these factors | – | – |
| factor XIa | – | – | Ir-CPI inhibits ... the activation of factor XII into factor XIIa by factor XIa | The results obtained did not show any effect of Ir-CPI protein on the amidolytic activity of these factors |
